Patent US9011913B2, “Use of functionalized magnetic nanoparticles in cancer detection and treatment” (The Regents of the University of California, priority 2008, dated 2015)
No end group written: not given here.

How the values were obtained:
[1] = Shelf-life of the compounds; assay type: physicochemical
[2] = tested on: adrenal gland; test: MRI of adrenal glands after ACTH-MNP injection; assay type: in vivo, mouse; conditions: tail vein
Protocol: ACTH-MNP was injected through tail vein (approximately 1 μg iron-oxide per gram of body weight) in a 1-day old mouse and a 60-day old mouse. MR images (T2, TE 6000, TR=[…], 0.4-1 mm slice thickness, 3 cm FOV, Brucker Biospin 7T) were obtain before, and up to 3 hours after injection with these contrast agents.

[3] = Tissue half-life of the particles; conditions: in vivo
[4] = tested on: AtT-20 cells; test: Functional studies of tumor cells: c-AMP production; assay type: cell-based, Murine
Protocol: Functional studies of tumor cells. Murine pituitary tumor cell lines (AtT-20 cells; American Type Culture Collection designation CCL-89™) were incubated with CRF and CRF-MNP preparations at 6 different molar concentrations of CRF and CRF-equivalent concentration of CRF-MNP (10^−12-10^−7 molar, factor of 10 increase per step). Production of c-AMP (nM) was measured after equivalent times of incubation with all the preparations.

[5] = equivalent CRF concentrations 10^−12-10^−7 molar

Substance	shelf-life [1]	uptake in the adrenals ([2]; 1-day old mouse, 5 μl)	uptake in the adrenals ([2]; 60 day old mouse, 100 μl)	tissue half-life [3]	cytotoxicity ([4]; AtT-20 cells)	functional properties of CRF while conjugated to the nanoparticles ([4]; cellular level)	decrease in potency compared to CRF (c-AMP production) [4, 5]	increase in efficacy compared to CRF (c-AMP production) [4, 5]
ACTH-MNP: Adrenocorticotropin Hormone (ACTH)-conjugated dextran-coated and epoxy surface-modified magnetonanoparticles, 10-15 nm diameter (SYSMEHFRWGKPVGKKRRPVKVYPNGAEDESAEAFPLEF; also: conjugated to dextran-coated, epoxy surface-modified magnetic nanoparticles; UniProt P01189 138-176, looked up)	2-3 months	increased uptake (decreased signal intensity)	increased uptake (decreased signal intensity)	order of hours to days				
CRF-MNP: CRF-conjugated dextran-coated and maleimide surface-modified magnetonanoparticles, 10-15 nm diameter	6-12 months			order of hours to days	not cytotoxic	retains its functional properties	approximately 10 fold	two-fold increase
